Laboratory results: paper PMC5650626, “Deletion of MtrA Inhibits Cellular Development of Streptomyces coelicolor and Alters Expression of Developmental Regulatory Genes”

Tests used:
[1] = target: T1, MtrA (MtrASCO) (Streptomyces coelicolor M145) (UniProt Q9KYW8); assay: EMSA; conditions: EMSA: 20 mM Tris-HCl pH 8.0, 2 mM EDTA, 20 mM KCl, 0.5 mM DTT, 4% Ficoll-400, 2 ug poly(dI-dC), 50 fmol probe, 20 ul, room temperature 15 min; footprinting …
T1 sequence: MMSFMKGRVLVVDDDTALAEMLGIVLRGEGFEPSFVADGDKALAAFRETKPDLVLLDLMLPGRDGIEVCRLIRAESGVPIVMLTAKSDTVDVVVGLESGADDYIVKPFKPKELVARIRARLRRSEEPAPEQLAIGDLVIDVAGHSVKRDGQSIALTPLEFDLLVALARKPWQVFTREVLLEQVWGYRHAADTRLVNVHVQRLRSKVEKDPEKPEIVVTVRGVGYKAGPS

MtrA (MtrASCO) [2] = target: T2, MtrA (MtrASCO) (Streptomyces coelicolor M145, UniProt Q9KYW8 1-229); assay: EMSA; almost complete shift at 1.6 ug; EMSA: 20 mM Tris-HCl pH 8.0, 2 mM EDTA, 20 mM KCl, 0.5 mM DTT, 4% Ficoll-400, 2 ug poly(dI-dC), 50 fmol probe, 20 ul, room temperature 15 min; footprinting 25 C, 30 min, 400 ng probe, 40 ul, poly(dI-dC); conditions: protein: recombinant; tags: His-tag (pET28a NdeI/HindIII; native stop codon in primer); chain copies: 2; label: biotin-11-UTP 3' end; blunt
T2 sequence: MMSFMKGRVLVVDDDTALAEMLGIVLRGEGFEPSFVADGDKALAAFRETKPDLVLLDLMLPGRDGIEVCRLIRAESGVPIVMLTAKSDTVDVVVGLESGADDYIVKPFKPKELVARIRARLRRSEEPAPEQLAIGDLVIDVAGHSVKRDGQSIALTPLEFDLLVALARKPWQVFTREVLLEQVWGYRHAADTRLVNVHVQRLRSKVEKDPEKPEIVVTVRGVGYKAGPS

MtrA (MtrASCO) [3] = target: T2, MtrA (MtrASCO); assay: EMSA; shift increases with MtrA; EMSA: 20 mM Tris-HCl pH 8.0, 2 mM EDTA, 20 mM KCl, 0.5 mM DTT, 4% Ficoll-400, 2 ug poly(dI-dC), 50 fmol probe, 20 ul, room temperature 15 min; footprinting 25 C, 30 min, 400 ng probe, 40 ul, poly(dI-dC); conditions: protein: recombinant; tags: His-tag (pET28a NdeI/HindIII; native stop codon in primer); chain copies: 2; label: biotin-11-UTP 3' end; blunt
MtrA (MtrASCO) [4] = target: T2, MtrA (MtrASCO); assay: EMSA; stronger than whiI-b; 2.1-6.3 ug MtrA; EMSA: 20 mM Tris-HCl pH 8.0, 2 mM EDTA, 20 mM KCl, 0.5 mM DTT, 4% Ficoll-400, 2 ug poly(dI-dC), 50 fmol probe, 20 ul, room temperature 15 min; footprinting 25 C, 30 min, 400 ng probe, 40 ul, poly(dI-dC); conditions: protein: recombinant; tags: His-tag (pET28a NdeI/HindIII; native stop codon in primer); chain copies: 2; label: biotin-11-UTP 3' end; blunt
MtrA (MtrASCO) [5] = target: T2, MtrA (MtrASCO); assay: EMSA; lower affinity than whiI-a; 2.1-6.3 ug MtrA; EMSA: 20 mM Tris-HCl pH 8.0, 2 mM EDTA, 20 mM KCl, 0.5 mM DTT, 4% Ficoll-400, 2 ug poly(dI-dC), 50 fmol probe, 20 ul, room temperature 15 min; footprinting 25 C, 30 min, 400 ng probe, 40 ul, poly(dI-dC); conditions: protein: recombinant; tags: His-tag (pET28a NdeI/HindIII; native stop codon in primer); chain copies: 2; label: biotin-11-UTP 3' end; blunt
MtrA (MtrASCO) [6] = target: T2, MtrA (MtrASCO); assay: EMSA; complete shift at lowest amount (1.6 ug); EMSA: 20 mM Tris-HCl pH 8.0, 2 mM EDTA, 20 mM KCl, 0.5 mM DTT, 4% Ficoll-400, 2 ug poly(dI-dC), 50 fmol probe, 20 ul, room temperature 15 min; footprinting 25 C, 30 min, 400 ng probe, 40 ul, poly(dI-dC); conditions: protein: recombinant; tags: His-tag (pET28a NdeI/HindIII; native stop codon in primer); chain copies: 2; label: biotin-11-UTP 3' end; blunt

Molecule: CGTCAGGGATGCGTCAGGAGTGCGTCAGGGGTCCGAGAGGGGTCCGACCGAGGTGCGCCGGGGCCTTCATGCATGCCCCGTACGGCCCGTCGGGGCCCGCCACGGCGCAGGCTTCACCCGCTTAACCCTCCTGGTTCGCGGTCCCCGCGGGCACGGCCCACGATCGTGCTTACGCGACCGTCGCACCCCGCCGGCCTGGCGGGCGCCGCCGACGATCGCCCCAGTCCACGAGGATGACCGGAGAAGAGGTGGGCCGGATGACGGTCT (double strand) [whiE-ORF1 upstream PCR probe (267 bp)]
- binding [1]: no binding

Molecule: CACCAGCCGTCGTTCATCGTTCCGGGCAGGGGGTCCGCACGTCCGGAGGAGGTTCCGTCACTTTGTCGACACGGCCACTTTCGGCCTCGTATCGACAAAGTGCGGAACCGTTCGATCTTCGAATGATCGACAGTGTGTCCGAATTGCTCGGATTGTTACTCACCAGATCGTGATCATTCTCTAAAGGCGGACGCGTTCGGTGCCGAAGACGACTGTGACCTTGAAAGCACGGTTCGTCCCGGCTTAAACCCCATGAGCCGGCCCCGTCCCCGCACCCCAGGAGGCCTGGTGTC (double strand) [whiI upstream PCR probe (293 bp)]
- binding [1]: binds

Molecule: GTCGTCCCCGATGGCAGGTGTAGGCCCCGCGGGTGCGTTCAGTGCCGTCACGGTTGATGCGGCAGCGGCCCGGCGTCGCGAACTTCCTTGACGTCGTGTGCCGTCGGCCGGCCGTCGCCGGCCGTGAGCCAGGGTTCTCCCGGGGCCGTGCTGCCCCTCCGTCTTTGTTCCCCTCGCGCGCTGCGAAAGACGTACGCCGTGCGAAGGCCGTCGGCTCCCGCACTCCCGACGACCTCCAACCTGTGAAATGGACGAATCATGACGA (double strand) [bldKA upstream PCR probe (265 bp)]
- binding [1]: no binding

Molecule: GGACATATGGCTCCCCGGACAAGGTGTCGACGCGGCAGGCTGTGTTGTCGGCCGCGCGGCTGGTAACTCACTGTGAGGTTACGCAGCGTTACTCTGCTGCGTCAAGCCGAATGGTCCGCACCGACTCTTCCGTGGTATTCGCCATCCATTACTCCGTGCGGGTGATCGATGTGGGGCAGAGGAGTGACGGGGGAGTGTCAGGGGGGTCATCGGAGAGGTTCTGTGAGCCTGCTACCGTAGGTGGCGCATATCCGACGTCCTTTAAGGTCCGTCCCGTGAGGC (double strand) [bldD upstream PCR probe (282 bp)]
- binding [1]: binds

B1: SCO1189 59bp (dsDNA)
DNA 1: CTCCCGCCGACCTCACGTGCCGGTTACAAATCGCTCAACCTCTGGTTGCGAAGCGGTGA
DNA 2: TCACCGCTTCGCAACCAGAGGTTGAGCGATTTGTAACCGGCACGTGAGGTCGGCGGGAG
- binding result (MtrA (MtrASCO) [2]): binds

B2: SCO2136 59bp (dsDNA)
DNA 1: TTCCGCCACAACTCACCTGCAGTGACGTCTTCCTGACACCACGTTGCGTGACGGTTCCG
DNA 2: CGGAACCGTCACGCAACGTGGTGTCAGGAAGACGTCACTGCAGGTGAGTTGTGGCGGAA
- binding result (MtrA (MtrASCO) [3]): binds

B3: whiI-a 59bp WT (SCO6029-a) (dsDNA)
DNA 1: GATCTGGTGAGTAACAATCCGAGCAATTCGGACACACTGTCGATCATTCGAAGATCGAA
DNA 2: TTCGATCTTCGAATGATCGACAGTGTGTCCGAATTGCTCGGATTGTTACTCACCAGATC
- binding result (MtrA (MtrASCO) [4]): binds

B4: SCO5583 59bp (dsDNA)
DNA 1: ACGACGACCGGCCCCGGCCGTTCACCCACGCGTAACACGCACCGTGCCTTCGTCACGGC
DNA 2: GCCGTGACGAAGGCACGGTGCGTGTTACGCGTGGGTGAACGGCCGGGGCCGGTCGTCGT
- binding result (MtrA (MtrASCO) [3]): binds

B5: SCO3485 59bp (dsDNA)
DNA 1: ATGCCCGTTGTCGACCAGGCGTGTCACCGTATGGTAAACCGGTTATCTGTGACGCGCGG
DNA 2: CCGCGCGTCACAGATAACCGGTTTACCATACGGTGACACGCCTGGTCGACAACGGGCAT
- binding result (MtrA (MtrASCO) [2]): binds

B6: whiI-b 59bp WT (SCO6029-b) (dsDNA)
DNA 1: TCACAGTCGTCTTCGGCACCGAACGCGTCCGCCTTTAGAGAATGATCACGATCTGGTGA
DNA 2: TCACCAGATCGTGATCATTCTCTAAAGGCGGACGCGTTCGGTGCCGAAGACGACTGTGA
- binding result (MtrA (MtrASCO) [5]): binds

B7: SCO1568 59bp (dsDNA)
DNA 1: CTCTGGGTGTGCGTGACTCACCTCACGGGGCGGTCACGTTCCTGCGGGGCGGTGGTCTG
DNA 2: CAGACCACCGCCCCGCAGGAACGTGACCGCCCCGTGAGGTGAGTCACGCACACCCAGAG
- binding result (MtrA (MtrASCO) [3]): binds

B8: SCO3863 59bp (dsDNA)
DNA 1: CGCCCGACTATACACACCGGCCGATACCGATCGGTGACCTGCGTCGGCGGTCAACTGCC
DNA 2: GGCAGTTGACCGCCGACGCAGGTCACCGATCGGTATCGGCCGGTGTGTATAGTCGGGCG
- binding result (MtrA (MtrASCO) [3]): binds

B9: SCO3561 59bp (dsDNA)
DNA 1: AATTACTCTCTATTTACTCGCTGTAATCGAACGGATACTCAGGAGACGGGAACATGTCA
DNA 2: TGACATGTTCCCGTCTCCTGAGTATCCGTTCGATTACAGCGAGTAAATAGAGAGTAATT
- binding result (MtrA (MtrASCO) [3]): binds

B10: SCO1489 (bldD) 59bp WT (dsDNA)
DNA 1: TGACGCAGCAGAGTAACGCTGCGTAACCTCACAGTGAGTTACCAGCCGCGCGGCCGACA
DNA 2: TGTCGGCCGCGCGGCTGGTAACTCACTGTGAGGTTACGCAGCGTTACTCTGCTGCGTCA
- binding result (MtrA (MtrASCO) [6]): binds

B11: SCO7458 59bp (dsDNA)
DNA 1: GGGCGACCGGTGGTCACCTGGTGTAACAGTCTTCTTATGATCTGTAGACGAAATGATCG
DNA 2: CGATCATTTCGTCTACAGATCATAAGAAGACTGTTACACCAGGTGACCACCGGTCGCCC
- binding result (MtrA (MtrASCO) [3]): binds

B12: SCO7434 59bp (dsDNA)
DNA 1: ATACCGGTCCGGTGTGTCTGCGTGACGGAGCGGTTACGGACAGCATCATGAGCTCTGCA
DNA 2: TGCAGAGCTCATGATGCTGTCCGTAACCGCTCCGTCACGCAGACACACCGGACCGGTAT
- binding result (MtrA (MtrASCO) [3]): binds

B13: SCO2210 59bp (dsDNA)
DNA 1: GCCGCGCCACAACGAGCCCGGGTAACACGGGGTTCACCTACGGGCAACGGTCGGGAAAT
DNA 2: ATTTCCCGACCGTTGCCCGTAGGTGAACCCCGTGTTACCCGGGCTCGTTGTGGCGCGGC
- binding result (MtrA (MtrASCO) [3]): binds
